We go through 28 sequences from the supplement of paper PMC9170038.

The test system of the data set is MS2 coat protein. The data set can be described thus: apparent KD of MS2 coat protein; designed switch direction (-1 OFF switch, 1 ON switch): -1; higher = weaker reporter binding. In a few lines: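 Designed RNA switches with common flanks were transcribed on Illumina chips by stalled E. coli RNA polymerase and titrated with SNAP-549-labelled MS2 coat protein, from 0.7 or 1.5 nM doubling to 3 µM, in Tris-HCl pH 7.5 buffer with KCl, MgCl2, BSA, DTT, tRNA and Tween-20. Steps lasted 0.8–1.5 h (lowest) to 10–20 min (highest). Titrations ran without input, with 200 uM small-molecule ligand, or with an oligonucleotide input. Normalised cluster fluorescence was curve-fitted, and apparent KD is the per-design median over clusters.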

Setting [1] is: input ligand: microRNA oligo, concentration not stated.
Setting [2] is: Eterna round: R95, input ligand: microRNA oligo, concentration not stated.
The mark [3] stands for this setting: Eterna round: R95, input ligand: FMN 200 uM.
Where [4] appears, read: Eterna round: R95, input ligand: none.

In the case of “UAAUAUCUGUAGGAUAUCAGUGGAAAACACGUAUGAGAAGGGCAGACAUGAGGAUCACCCAUGUAUAGGGUCCG [BotMod 7 - Jieux - Exclusion 6] (Eterna round: R97, puzzle: Exclusion 6)”, the “apparent KD of MS2 coat protein” value was found to be 61.9 nM (input ligand: FMN 200 uM) and 20.9 nM (input ligand: none).

As to “UAAUAUCUGUAGGAUAUCAGUGGAGCACACGUAUGAGAAGGGCAGACAUGAGGAUCACCCAUGUAUAGGGUCCG [BotMod 5 - Jieux - Exclusion 6] (Eterna round: R97, puzzle: Exclusion 6)”, the “apparent KD of MS2 coat protein” value (input ligand: FMN 200 uM) was 38.7 nM and the “apparent KD of MS2 coat protein” value (input ligand: none) was determined as 29.3 nM.

In the case of “UAAUGUGCGAGAGGAUAUCGUGUACAAAGUACACGAGAAGGCUUCACAUGAGGAUCACCCAUGUACCGAGGUGAAACACCUUGA [Omei Exc(NG)1 B] (Eterna round: R96, puzzle: Exclusion NG 1)”, the “apparent KD of MS2 coat protein” value by setting is: (input ligand: FMN 200 uM) 950 nM; under setting [1], 110 nM; (input ligand: none) 383 nM.

As for “UAAUUAAGUGUGAGGAUAUGCUGGUCCUUGGAUCAGCAGAAGGCACAUGAGGAUCACCCAUGUAAUAUAUUUAU [JL bmx4 3.11] (puzzle: Brourd's mod of Exclusion 4)”, the “apparent KD of MS2 coat protein” value under setting [2] is 81.9 nM.

On to “UAAUUAAUUAAUUAAUAAUACAUGAGGAUCACCCAUGUAGAUCCUACAUACAAGCUAAGUAGCUCGUCUUAUAAUUA [Stov1/2-A1] (Eterna round: R97, puzzle: Sensor, turn-off variant 1)”, for which the “apparent KD of MS2 coat protein” value by setting is: (input ligand: FMN 200 uM) 364 nM; (input ligand: none) 353 nM.

Take “UAAUUCAGAGGAUAUGCGCAUAGAUAAGACUUUUUUUUUUAACAUGAGGAUCACCCAUGUAGAAGGCUGUAAUU [Ex2 #54] (Eterna round: R97, puzzle: Exclusion 2)”: the “apparent KD of MS2 coat protein” value is, setting by setting: (input ligand: FMN 200 uM) 24 nM; (input ligand: none) 23.1 nM.

Consider “UAAUUGAUUAAUAGAUUAUACAUGAGGAUCACCCAUGUAGGUCCUACGUGCCAUUUAAGUAGCUCGUCUUAUUCCCA [Sensor-V1 #67] (Eterna round: R97, puzzle: Sensor, turn-off variant 1)”, for which the “apparent KD of MS2 coat protein” value runs as follows: (input ligand: FMN 200 uM) 40.2 nM; (input ligand: none) 45.6 nM.

Consider “UAAUUGUGAGGAUAUCAGGUGUGCUAGCGUACUGGUACAUCUGAGAAGGCACAUGAGGAUCACCCAUGUUCCUU [Mat - Exclusion 4 - Mod of JL - D47] (puzzle: Exclusion 4)”, for which the “apparent KD of MS2 coat protein” value under setting [2] stood at 13.6 nM.

For the sequence “UAAUUGUGAGGAUAUUCGUUUUUCACGGAGACGUGAAGAACGGAGAAGGCACAUGAGGAUCACCCAUGUUCCUU [Mat - Exclusion 4 - JL Mod - D15] (Eterna round: R97, puzzle: Exclusion 4)”, the “apparent KD of MS2 coat protein” value is, setting by setting: (input ligand: FMN 200 uM) 89.3 nM; (input ligand: none) 19.5 nM.

For the sequence “UACAAGCAAGGAUAUACAUGAGGAUCACCCAUGUCACUCCUAGCGCGGGUUUUGAAAUGUAGAAGGUGCACCUG [EX3 B.14] (Eterna round: R97, puzzle: Exclusion 3)”, the “apparent KD of MS2 coat protein” value runs as follows: (input ligand: FMN 200 uM) 17.3 nM; (input ligand: none) 20.5 nM.

For “UACAAUAAGGAGGAUAUCGUAUCGGAAACGAUACGAGAAGGCUUAACAUGAGGAUCACCCAUGUUCUUCAAUAU [Mat - Exclusion 6 - Eli Mod - D97] (puzzle: Exclusion 6)”, the “apparent KD of MS2 coat protein” value amounted to 18.7 nM under setting [3], 15.2 nM under setting [2] and 15.6 nM under setting [4].

As to “UACACUGCAUGAGGAUCAAACAUGAGGAUCACCCAUGUAUAGCAGGCUUUUUGCACGUCUUAUAAUUAUGUAGUGUA [Electric Eye 15 - Jieux - Sensor, turn-off variant 1] (Eterna round: R97, puzzle: Sensor, turn-off variant 1)”, the “apparent KD of MS2 coat protein” value runs as follows: (input ligand: FMN 200 uM) 14.2 nM; (input ligand: none) 14.4 nM.

Regarding “UACACUGCAUGAGGAUCAAACAUGAGGAUCACCCAUGUAUUGCAAGCUUUUUGCACGUCUUAUAAUUAUGUAGUGUA [Electric Eye 20 - Jieux - Sensor, turn-off variant 1] (Eterna round: R97, puzzle: Sensor, turn-off variant 1)”, the “apparent KD of MS2 coat protein” value is, setting by setting: (input ligand: FMN 200 uM) 17.2 nM; (input ligand: none) 17.2 nM.

With “UACAGUCAUCCUUGUUGUUACAUGAGGAUCACCCAUGUUAGUAUAGUUAAGUUAUGUGAGUUUGUUGUUCGUUUUAU [JR_STOV1_v2_Sub077] (Eterna round: R97, puzzle: Sensor, turn-off variant 1)”, the “apparent KD of MS2 coat protein” value runs as follows: (input ligand: FMN 200 uM) 149 nM; (input ligand: none) 169 nM.

“UACAGUCGAGGAUAUACGAUCGUGCUUCGGCACGUAAGAUCACAUGAGGAUCACCCAUGUAGAAGGCGACUGUA [Mod 9 - Jieux - Exclusion 2] (Eterna round: R97, puzzle: Exclusion 2)”: the “apparent KD of MS2 coat protein” value was found to be 226 nM (input ligand: FMN 200 uM) and 35.1 nM (input ligand: none).

On to “UACAUGAGGAUCACCCAUGUUUUGUCGUGUAUGGUAUUUAUCUAGGAUAUCAAUCUAUGUAUUUAUGAGAAGGAGAAUAUUAAU [JMF's solution 51] (Eterna round: R96, puzzle: Exclusion NG 3)”, for which the “apparent KD of MS2 coat protein” value under setting [1] stood at 31 nM.

On to “UACAUGAGGAUCACCCAUGUUUUGUCGUGUAUGGUAUUUAUCUAGGAUAUCAAUGUAAUUAUUUAUGAGAAGGAGAAUAUUAAU [JMF's solution 40] (Eterna round: R96, puzzle: Exclusion NG 3)”, for which the “apparent KD of MS2 coat protein” value is, setting by setting: (input ligand: FMN 200 uM) 41.2 nM; under setting [1], 36.1 nM; (input ligand: none) 44.7 nM.

With “UACAUGAGGAUCACCCAUGUUUUGUCGUGUAUGGUAUUUAUCUAGGAUAUCAAUGUGUUUAUUUAUGAGAAGGAGAAUAUUAAU [JMF's solution 39] (Eterna round: R96, puzzle: Exclusion NG 3)”, the “apparent KD of MS2 coat protein” value turned out to be 40 nM (input ligand: FMN 200 uM), 31.8 nM under setting [1] and 35.4 nM (input ligand: none).

Consider “UACAUGAGGAUCACCCAUGUUUUGUCGUGUAUGGUAUUUAUCUAGGAUAUCAAUUAAUUUAUUUAUGAGAAGGAGAAUAUUAAU [JMF's solution 14] (Eterna round: R96, puzzle: Exclusion NG 3)”, for which the “apparent KD of MS2 coat protein” value runs as follows: (input ligand: FMN 200 uM) 40.3 nM; under setting [1], 28.1 nM; (input ligand: none) 38.3 nM.

As to “UACAUGAGGAUCACCCAUGUUUUGUCGUGUAUGGUAUUUAUCUAGGAUAUCAAUUGAUUUAUGUAUGAGAAGGAGAAUAUUAAU [JMF's solution 63] (Eterna round: R96, puzzle: Exclusion NG 3)”, the “apparent KD of MS2 coat protein” value is, setting by setting: (input ligand: FMN 200 uM) 41.1 nM; under setting [1], 34.9 nM; (input ligand: none) 34.8 nM.

With “UACAUGAGGAUCACCCAUGUUUUGUCGUGUAUGGUAUUUAUCUAGGAUAUCAAUUUAUUUAUGUAUGAGAAGGAGAAUAUUAAU [JMF's solution 23] (Eterna round: R96, puzzle: Exclusion NG 3)”, the “apparent KD of MS2 coat protein” value (input ligand: FMN 200 uM) amounted to 40.8 nM, the “apparent KD of MS2 coat protein” value under setting [1] amounted to 29.8 nM and the “apparent KD of MS2 coat protein” value (input ligand: none) was 44.7 nM.

As to “UACAUGAGGAUCACCCAUGUUUUGUCGUGUAUGGUAUUUAUCUAGGAUAUCAAUUUGUUUAGUUAUGAGAAGGAGAAUAUUAAU [JMF's solution 71] (Eterna round: R96, puzzle: Exclusion NG 3)”, the “apparent KD of MS2 coat protein” value reads like this: (input ligand: FMN 200 uM) 35.9 nM; under setting [1], 33.3 nM; (input ligand: none) 37.6 nM.

Turning to “UACAUGAGGAUCACCCAUGUUUUGUCGUGUAUGGUAUUUAUCUAGGAUAUCAAUUUGUUUAUGUAUGAGAAGGAGAAUAUUAAU [JMF's solution 72] (Eterna round: R96, puzzle: Exclusion NG 3)”, the “apparent KD of MS2 coat protein” value reads like this: (input ligand: FMN 200 uM) 32.9 nM; under setting [1], 28.4 nM; (input ligand: none) 35.6 nM.

With “UACAUGAGGAUCACCCAUGUUUUGUCGUGUAUGGUAUUUAUCUAGGAUAUCACUUUAUUUAUUUAUGAGAAGGAGAAUAUUAAU [JMF's solution 8] (Eterna round: R96, puzzle: Exclusion NG 3)”, the “apparent KD of MS2 coat protein” value runs as follows: (input ligand: FMN 200 uM) 34.2 nM; under setting [1], 27.1 nM; (input ligand: none) 37.9 nM.

For “UACAUGAGGAUCACCCAUGUUUUGUCGUGUUUGGUACCCGUUUAGGAUAUCGUGUUAUUGGAUCGCGAGAAGGAGAGUAUCUUU [Excl-NG3-LRO08] (Eterna round: R96, puzzle: Exclusion NG 3)”, the “apparent KD of MS2 coat protein” value (input ligand: FMN 200 uM) amounted to 26.8 nM, the “apparent KD of MS2 coat protein” value under setting [1] came to 26 nM and the “apparent KD of MS2 coat protein” value (input ligand: none) was 31.7 nM.

Regarding “UACCGGCGGACCGAGGCUUUUUGCUCGUCUUAUGCUACGACAUGAGGAUCACCCAUGUGGUGGUGGUCCGUUGUAGU [JL ViennaUCT Bitein mod 7] (puzzle: Sensor v3, turn-off variant 2)”, the “apparent KD of MS2 coat protein” value runs as follows: under setting [3], 106 nM; under setting [2], 13.3 nM; under setting [4], 122 nM.

As for “UACCUGAGGCAAAGCUUUAGGUAAACAUGAGGAUCACCCAUGUAGGAUAUGGUAGGCAAAGCUUACCAGAAGGACAUGAAAAUU [Mat - Exclusion NG 3 - Mod of JL - D36] (Eterna round: R96, puzzle: Exclusion NG 3)”, the “apparent KD of MS2 coat protein” value is, setting by setting: (input ligand: FMN 200 uM) 333 nM; under setting [1], 53.3 nM; (input ligand: none) 87.8 nM.

On to “UACCUGAGGCUUUGCUUUAGGUUUACAUGAGGAUCACCCAUGUAGGAUAUGGUAGGCUUUGCUUACCAGAAGGACAUGUUAAUU [JL ENG3 1.08] (Eterna round: R96, puzzle: Exclusion NG 3)”, for which the “apparent KD of MS2 coat protein” value was 190 nM (input ligand: FMN 200 uM), 64.9 nM under setting [1] and 59.9 nM (input ligand: none).
